# Results from patent US20190263904A1 (TENEOBIO, published 2019).
# Target: T1, cynomolgus CD3 (cynomolgus, UniProt Q95LI5 22-198; Q95LI8 22-171)
# T1 construct: Rats were immunised with cynomolgus CD3-epsilon/delta constructs; also called CD3 protein of Cynomolgus macaque; non-human primate CD3 proteins
# Assay: flow cytometry, parental monospecific anti-CD3 on cyno T-cells
# T1 sequence (Q95LI5 22-198, chain 1 of 2): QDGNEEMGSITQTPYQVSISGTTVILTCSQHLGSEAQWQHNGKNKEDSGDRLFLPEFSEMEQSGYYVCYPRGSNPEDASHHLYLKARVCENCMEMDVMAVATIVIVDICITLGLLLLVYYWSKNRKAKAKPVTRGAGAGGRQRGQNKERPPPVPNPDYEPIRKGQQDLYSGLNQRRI
# T1 sequence (Q95LI8 22-171, chain 2 of 2): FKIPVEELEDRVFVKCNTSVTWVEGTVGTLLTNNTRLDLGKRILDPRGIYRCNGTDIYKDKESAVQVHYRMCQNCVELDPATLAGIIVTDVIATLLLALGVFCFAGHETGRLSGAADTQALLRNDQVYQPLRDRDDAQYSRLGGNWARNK
row,Cyno T-cell bind (MFI),Binder
1,26.2,"anti-CD3 FlicAb ID 304703 (SEQ ID NO:39) (antibody, V domains shown, fully human IgG1 with the fixed kappa light chain) VH: QLQLQESGPGLVKPSQTLSLTCTVSGGSISSGGHYWSWIRQHPGKGLEWIGYIHYSGSTYYNPSLKSRVIISVDTSKNQFSLKLRSVTAADTAVYYCARWRHDIFAAYPYYYYGMDVWGQGTLVTVSS VL: not shown"
2,71.7,"anti-CD3 FlicAb ID 313306 (SEQ ID NO:1) (antibody, V domains shown, fully human IgG1 with the fixed kappa light chain; also called αCD3_F1F) VH: QLQLQESGPGLVKPSQTLSLTCSVSGGSIRSGGHYWSWIRQHPGKGLEWIGYIHHSGSTYYNPSLKSRVIISVDTSKNQFSLKLRSVTAADTAIYYCARWRHDIFTTYPYYYYGMDVWGQGTLVTVSS VL: not shown"
3,17.4,"anti-CD3 FlicAb ID 313329 (SEQ ID NO:6) (antibody, V domains shown, fully human IgG1 with the fixed kappa light chain) VH: QLQLQESGPGLVKPSETLSLTCTVSGGSISSGGHYWSWIRQHPGKGLEWIGYIHHSGSTNYNPSLKSRITISVDTSKNQFSLKVSSVTAADTAVYYCARWRHDIFAAYPYYYYGMDVWGQGTLVTVSS VL: not shown"
